The source of these data is publication PMC4632185, “Mechanistic basis of Nek7 activation through Nek9 binding and induced dimerization” (Nature Communications, 2015).

A value given as a limit tells only on which side of the number the result lay.

The chains are these.
B2: Nek7 N90K (enzyme)
chain: not shown
B3: Nek7 N90R (enzyme)
chain: not shown
B4: Nek7 N90A (enzyme)
chain: not shown

Data set [1] has as its target T1, Nek7-His6, full-length wild type, unphosphorylated (human, UniProt Q8TDX7 1-302).
T1 construct: Nek7 (NIMA-related kinase 7), human, full length; also called Nek7^WT; unphosphorylated Nek7^WT; source: E. coli Codonplus RPIL, co-expressed with or without λ-phosphatase, purified (HisTRAP, Superdex-200); not shown: His6, C-terminal, kept
The data set is described as follows: pull-down; GST co-precipitation: 100 μg GST-Nek9 protein immobilised on glutathione sepharose-4B beads, incubated with 100 μg Nek7 in 500 μl for 1 h at 4 °C; 50 mM HEPES pH 7.5, 300 mM NaCl, 5% glycerol, 5 mM dithiothreitol, 0.05% Tween-20; Coomassie staining or immunoblot with α-His6. The following applies: both partners purified.

Data set [2] deals with the molecule itself. The data set is described as follows: cell-based or functional assay.
The target in data set [3] is T2, Nek7^Y97F, full length (human, UniProt Q8TDX7 1-302, Y97F).
T2 construct: Nek7, human, full length; residues 20-300 modelled in the structure; source: E. coli Codonplus RPIL, co-expressed with or without λ-phosphatase, purified (HisTRAP, Superdex-200)
The data set is described as follows: pull-down; GST co-precipitation: 100 μg GST-Nek9 protein immobilised on glutathione sepharose-4B beads, incubated with 100 μg Nek7 in 500 μl for 1 h at 4 °C; 50 mM HEPES pH 7.5, 300 mM NaCl, 5% glycerol, 5 mM dithiothreitol, 0.05% Tween-20; Coomassie staining or immunoblot with α-His6. The following applies: both partners purified. On the technique in general: A western blot detects proteins with antibodies after separation by electrophoresis.

Data set [4] addresses T3, phosphorylated Nek7^WT (human, UniProt Q8TDX7 1-302, phosphorylated (sites not stated for this preparation)).
T3 construct: Nek7, human, full length; also called phospho-Nek7^WT; source: E. coli Codonplus RPIL, co-expressed with or without λ-phosphatase, purified (HisTRAP, Superdex-200)
The data set is described as above. The following applies: both partners purified.

The target of data set [5] is T4, Nek7^Y97A, full length (human, UniProt Q8TDX7 1-302, Y97A).
T4 construct: Nek7, human, full length; source: E. coli Codonplus RPIL, co-expressed with or without λ-phosphatase, purified (HisTRAP, Superdex-200)
The description is as above. The following applies: both partners purified.

The target in data set [6] is B3. The data set is described as above. The following applies: both partners purified.
Data set [7] has as its target B2. The description is as above. The following applies: both partners purified.
Data set [8] concerns the target T5, Nek7 K96E (human, UniProt Q8TDX7 1-302, K96E).
T5 construct: Nek7, human, full length; source: E. coli Codonplus RPIL, co-expressed with or without λ-phosphatase, purified (HisTRAP, Superdex-200)
The data set is described as above. The following applies: both partners purified.

Data set [9] concerns the target B4. The description is as above. The following applies: both partners purified.
For data set [10], the target named is T2, Nek7^Y97F, full length. Nature of the data set: crystal structure; co-crystallisation by sitting drop vapour diffusion, Nek7^Y97F at 440 μM and Nek9 peptide at 880 μM; 0.2 M potassium thiocyanate, 0.1 M bis-Tris propane pH 7.5, 20% PEG 3350; 2.78 Å, space group P3_(1) 2 1. The following applies: both partners purified.

T1 sequence (Q8TDX7 whole entry): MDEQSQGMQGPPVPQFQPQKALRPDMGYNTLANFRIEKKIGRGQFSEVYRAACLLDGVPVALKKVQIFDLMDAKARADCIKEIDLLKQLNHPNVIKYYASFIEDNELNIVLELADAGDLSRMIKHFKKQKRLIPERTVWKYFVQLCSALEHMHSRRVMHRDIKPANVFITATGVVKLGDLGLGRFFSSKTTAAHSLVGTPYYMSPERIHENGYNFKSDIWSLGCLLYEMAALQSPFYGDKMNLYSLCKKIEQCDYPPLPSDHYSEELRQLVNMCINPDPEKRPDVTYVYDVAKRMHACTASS
T2 sequence (Q8TDX7 whole entry Y97F, the tested form may be a part): as the sequence (Q8TDX7 whole entry) above, with Y97F counted along it
T4 sequence (Q8TDX7 whole entry Y97A): as the sequence (Q8TDX7 whole entry) above, with Y97A counted along it
T3 sequence (Q8TDX7 whole entry): as the sequence (Q8TDX7 whole entry) above
T5 sequence (Q8TDX7 whole entry K96E): as the sequence (Q8TDX7 whole entry) above, with K96E counted along it

B1: GST-Nek9 810–828 (domain or fragment, human, UniProt Q8TD19 810-828, looked up)
chain: GWLRKELENAEFIPMPDSP
notes: source: E. coli, purified (glutathione sepharose)
In the case of B1, the binding result in data set [1] is on record as “binds”.
With B2, the “in vitro kinase activity of the initially unphosphorylated Nek7 mutant, in the presence or absence of Nek9-CTD, against WT (32P incorporation, scintillation counting)” value in data set [2] is at most 10 fold.
Regarding B3, the “in vitro kinase activity of the initially unphosphorylated Nek7 mutant, in the presence or absence of Nek9-CTD, against WT (32P incorporation, scintillation counting)” value in data set [2] is at most 10 fold.
On to B4, for which the “fold decrease in in vitro kinase activity of the initially unphosphorylated Nek7 mutant, against WT (32P incorporation, scintillation counting)” value in data set [2] is around 2 fold.

B5: GST-Nek9-CTD (aa 726–979) (domain or fragment, human, UniProt Q8TD19 726-979, looked up)
chain: KVLNSKTIRSNSSGLSIGTVFQSSSPGGGGGGGGGEEEDSQQESETPDPSGGFRGTMEADRGMEGLISPTEAMGNSNGASSSCPGWLRKELENAEFIPMPDSPSPLSAAFSESEKDTLPYEELQGLKVASEAPLEHKPQVEASSPRLNPAVTCAGKGTPLTPPACACSSLQVEVERLQGLVLKCLAEQQKLQQENLQIFTQLQKLNKKLEGGQQVGMHSKGTQTAKEEMEMDPKPDLDSDSWCLLGTDSCRPSL
notes: Nek9, human, C-terminal domain, residues 726-979; For some kinase assays the GST tag was removed with 3C protease; also called Nek9 non-catalytic C-terminal domain; N9 CTD; source: E. coli, purified (glutathione sepharose); not shown: GST, N-terminal, kept
As to B5, the binding result in data set [3], in data set [4], in [5], in data set [6], in [7] and in data set [1] was “binds” each time. Moreover, the binding result in [8] and in [9] was “binds” each time.

B6: synthetic peptide corresponding to aa 810–828 of Nek9 (peptide, UniProt Q8TD19 810-828, looked up)
peptide: GWLRKELENAEFIPMPDSP
notes: source: synthetic peptide (Peptide Synthetics)
Take B6: in data set [10], the binding result is listed as “binds”.
